Laboratory results from publication doi:10.1101/2022.01.26.477937 (bioRxiv, 2022).

What was measured:
[1] = target: T1, SARS-CoV-2 Wuhan-Hu-1 spike receptor-binding domain (RBD) (SARS-CoV-2 Wuhan-Hu-1, UniProt P0DTC2); assay: crystal structure
[2] = target: T1, SARS-CoV-2 Wuhan-Hu-1 spike …; assay: BLI
[3] = target: T1, SARS-CoV-2 Wuhan-Hu-1 spike …; assay: ELISA

Row | Binder | binding result [1] | also measured
1 | Fab fragment from NCV2SG48 (Fab, V domains shown) VH: EVQLVESGGGLIQPGGSLRLSCAASGFIVSRNYMNWVRQAPGKGLEWVALIYSGGSTFYADSVKGRFTISRDNSKNTLYLQMNSLRAEDTAVYYCARDLVVYGLDYWGQGTLVTVSS VL: AIQLTQSPSSLSASVGDRVTITCRASQGISSHLAWYQQKPGKAPKLLIFAASTLQSGVPSRFSGSGSGTDFTLTISSLQPEDFATYYCQHLNSNPPITFGQGTRLEIK | binds | 
2 | NCV2SG48 monoclonal antibody (human IgG) (antibody, V domains shown) VH: EVQLVESGGGLIQPGGSLRLSCAASGFIVSRNYMNWVRQAPGKGLEWVALIYSGGSTFYADSVKGRFTISRDNSKNTLYLQMNSLRAEDTAVYYCARDLVVYGLDYWGQGTLVTVSS VL: AIQLTQSPSSLSASVGDRVTITCRASQGISSHLAWYQQKPGKAPKLLIFAASTLQSGVPSRFSGSGSGTDFTLTISSLQPEDFATYYCQHLNSNPPITFGQGTRLEIK |  | binding result [2]: binds
3 | NCV2SG53 monoclonal antibody (human IgG) (antibody, V domains shown) VH: QVQMVESGGGLVRPGGSLRLSCAASGFTFSDYYMSWIRQAPGKGLEWISYISSSGSSMNYADSVKGRFTISRDNAKNSLFLQMNSLRAEDTAVYYCAREFDLTKIIMVPPYWGQGTLVTVSS VL: AIQLTQSPSSLSASVGDRVTITCRASQGISSYLAWYQQKPGKAPKVLIYAASTLQSGVPSRFSGSGSGTDFTLTISSLQPEDFATYYCQQLKSYPLTFGGGTKVEIT |  | binding result [3]: binds
4 | Fab fragment of NCV2SG53 (Fab, V domains shown) VH: QVQMVESGGGLVRPGGSLRLSCAASGFTFSDYYMSWIRQAPGKGLEWISYISSSGSSMNYADSVKGRFTISRDNAKNSLFLQMNSLRAEDTAVYYCAREFDLTKIIMVPPYWGQGTLVTVSS VL: AIQLTQSPSSLSASVGDRVTITCRASQGISSYLAWYQQKPGKAPKVLIYAASTLQSGVPSRFSGSGSGTDFTLTISSLQPEDFATYYCQQLKSYPLTFGGGTKVEIT | binds | 
